# From patent US20240301062A1 (BEIGENE SWITZERLAND, published 2024)
# “And” between values parts separate entries of the source, which are not always exact repeats. Identical values can stand only once. Like-named read-outs stand apart in the source and are kept apart here.
# T1: human claudin 6 (CLDN6) (human, UniProt P56747 1-220)
# T1 construct: also called human CLDN6; hCLDN6
# T1 sequence: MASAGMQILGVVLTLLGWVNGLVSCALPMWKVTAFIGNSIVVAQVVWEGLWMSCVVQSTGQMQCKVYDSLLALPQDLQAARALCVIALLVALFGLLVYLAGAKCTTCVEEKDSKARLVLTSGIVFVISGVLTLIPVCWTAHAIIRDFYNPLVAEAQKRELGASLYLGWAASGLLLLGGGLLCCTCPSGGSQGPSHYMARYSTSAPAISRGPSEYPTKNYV
# T2: mouse CLDN6 (mouse, UniProt Q9Z262 1-219)
# T2 construct: whole, on cells
# T2 sequence (looked up): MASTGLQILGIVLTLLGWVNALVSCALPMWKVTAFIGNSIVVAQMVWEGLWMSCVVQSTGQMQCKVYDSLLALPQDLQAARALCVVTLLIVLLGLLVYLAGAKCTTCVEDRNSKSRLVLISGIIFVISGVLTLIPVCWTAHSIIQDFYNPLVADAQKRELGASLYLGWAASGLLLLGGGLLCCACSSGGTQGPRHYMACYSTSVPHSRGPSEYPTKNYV
# Key:
# human claudin 6 (CLDN6) [1] = target: T1, human claudin 6 (CLDN6); assay: FACS, HEK293-hCLDN6 cells
# human claudin 6 (CLDN6) [2] = target: T1, human claudin 6 (CLDN6); assay: FACS, HEK293T-hCLDN6 cells
# cyno CLDN6 [3] = target: T3, cyno CLDN6 (cyno); assay: FACS, HEK293T-cyno-CLDN6 cells
# T3 construct: whole, on cells; also called cynomolgus CLDN6
# cyno CLDN6 [4] = target: T3, cyno CLDN6; assay: FACS, HEK293T_cyno-CLDN6 cells
# human claudin 6 (CLDN6) [5] = target: T1, human claudin 6 (CLDN6); assay: FACS, HEK293T/human CLDN6 cells
# Experimental: (§1) For affinity determination, CLDN6 over-expressing HEK293T cells and cancer cell line PA-1 which express high levels of human CLDN6 were used to evaluate the binding activity of BG87P related engineering variants. Live cells were seeded in 96-well plate, and were incubated with a series of dilutions of chBG87P and engineered variants thereof. Goat anti-human IgG was used as second antibody to detect antibody binding to the cell surface. EC50 values for dose-dependent binding to CLDN6 expressing cell lines were determined by fitting the dose-response data to the four-parameter logistic model with GraphPad Prism. Cell binding activity of 1st round of BG87P humanization variants against HEK293T/human CLDN6 were compared to chBG87P and shown in FIG. 1A.
# Beginning with the chBG87P antibody and BG87P-Bz0, several additional amino acid changes in the CDR regions of both VH and VL were made to further improve the biophysical properties for therapeutics use in human. The considerations included removing post translational modifications (PTM), improved heat stability (Tm), while maintaining binding activities, the resulted variants are BG87P-m1 (VH SEQ ID NO: 31 and VL SEQ ID NO: 8), BG87P-m2 (VH SEQ ID NO: 32 and VL SEQ ID NO: 8), BG87P-m3 (VH SEQ ID NO: 33 and VL SEQ ID NO: 8), and BG87P-m4 (VH SEQ ID NO: 34 and VL SEQ ID NO: 8) and BG87P-m5 (VH SEQ ID NO: 35 and VL SEQ ID NO: 14), BG87P-m6 (VH SEQ ID NO: 36 and VL SEQ ID NO 14), BG87P-m7 (VH SEQ ID NO: 37 and VL SEQ ID NO: 14), and BG87P-m8 (VH SEQ ID NO: 38 and VL SEQ ID NO: 14). Cell binding activity of chBG87P and BG87P-Bz0 related PTM removal variants against HEK293T/human CLDN6 was compared with chBG87P and BG87-Bz0, respectively ([…]). Cell binding affinity (EC50) and Emax (MFI) was normalized to chBG87P for directly comparison and ranking (Table 7).
# human claudin 6 (CLDN6) [6] = target: T1, human claudin 6 (CLDN6); assay: FACS, PA-1 cells (endogenous CLDN6)
# Experimental: as §1
# cyno CLDN6 [7] = target: T3, cyno CLDN6; assay: flow cytometry on CHOK1/cyno CLDN6 cells, MFI(PE)
# mouse CLDN6 = target: T2, mouse CLDN6; assay: flow cytometry on CHOK1/mouse CLDN6 cells, MFI(PE)
# human claudin 6 (CLDN6) [8] = target: T1, human claudin 6 (CLDN6); assay: flow cytometry on HEK293T/human CLDN6 cells, goat anti-human IgG secondary, MFI(PE)
# Experimental: as §1
# [9] = target: T4, human native CD3 on live cells (HuT78, Jurkat) (human, UniProt P07766 23-207; P09693 23-182; P04234 22-171); assay: FACS, HuT78 cells
# T4 construct: whole, on cells; also called human CD3
# T4 sequence (P07766 23-207, chain 1 of 3): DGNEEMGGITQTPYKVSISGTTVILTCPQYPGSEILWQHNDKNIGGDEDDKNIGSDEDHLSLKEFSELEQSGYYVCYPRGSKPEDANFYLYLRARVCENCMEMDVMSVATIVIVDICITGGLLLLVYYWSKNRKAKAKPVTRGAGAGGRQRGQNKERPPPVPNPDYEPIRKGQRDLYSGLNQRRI
# T4 sequence (P09693 23-182, chain 2 of 3): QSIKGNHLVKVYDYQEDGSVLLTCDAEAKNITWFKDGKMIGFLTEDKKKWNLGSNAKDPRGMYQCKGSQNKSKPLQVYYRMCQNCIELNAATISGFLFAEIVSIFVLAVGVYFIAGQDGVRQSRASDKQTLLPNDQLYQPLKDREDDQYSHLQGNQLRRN
# T4 sequence (P04234 22-171, chain 3 of 3): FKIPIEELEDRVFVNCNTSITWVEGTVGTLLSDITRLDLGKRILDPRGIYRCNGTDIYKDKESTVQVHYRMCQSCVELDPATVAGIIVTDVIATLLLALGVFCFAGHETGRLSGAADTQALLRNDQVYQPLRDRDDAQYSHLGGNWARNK
# Experimental: (§2) For affinity determination, antibodies were captured by anti-human Fc surface, and used in the affinity-assay based on surface plasmon resonance (SPR) technology. The binding activity of humanized sp34 to bind native CD3 on live cells was evaluated using HuT78 cells in a FACS based assay. Live HuT78 cells were seeded in 96-well plate, and were incubated with a series of dilutions of chimeric or humanized sp34. Mouse anti-Human IgG was used as second antibody to detect antibody binding to the cell surface. EC50 values for dose-dependent binding to human native CD3 were determined by fitting the dose-response data to the four-parameter logistic model with GraphPad Prism.
# [10] = target: T4, human native CD3 on live cells (HuT78, …); assay: FACS, HuT78 cells; remark: listed apart in the source
# Experimental: as §2
# CD3ε (SPR analyte) [11] = target: T5, CD3ε (SPR analyte) (UniProt P07766 23-126, limits assumed); assay: SPR, antibody captured by anti-human Fc
# T5 sequence (P07766 23-126 limits assumed): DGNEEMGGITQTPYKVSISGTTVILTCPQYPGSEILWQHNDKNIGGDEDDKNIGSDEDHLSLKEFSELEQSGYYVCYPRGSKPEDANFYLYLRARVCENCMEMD
# Experimental: as §2
# CD3ε (SPR analyte) [12] = target: T5, CD3ε (SPR analyte); assay: SPR, antibody captured by anti-human Fc; remark: listed apart in the source
# Experimental: as §2
# [13] = target: T4, human native CD3 on live cells (HuT78, …); assay: flow cytometry on live HuT78 cells, mouse anti-human IgG secondary, MFI
# Experimental: as §2
# [14] = target: T4, human native CD3 on live cells (HuT78, …); assay: as above; remark: listed apart in the source
# Experimental: as §2
# CD3ε (SPR analyte) [15] = target: T5, CD3ε (SPR analyte); assay: SPR
Binder,FACS-Ec50 ratio to BG87P (human claudin 6 (CLDN6) [1]) [ratio],FACS Emax ratio to BG87P (human claudin 6 (CLDN6) [2]) [ratio],FACS Emax ratio to BG87P (cyno CLDN6 [3]) [ratio],EC50 (cyno CLDN6 [4]) [nM],binding result (mouse CLDN6),EC50 [9] [nM],EC50 [10] [nM],Kd (CD3ε (SPR analyte) [11]) [nM],koff (CD3ε (SPR analyte) [11]) [s⁻¹],kon (CD3ε (SPR analyte) [11]) [M⁻¹ s⁻¹],Kd (CD3ε (SPR analyte) [12]) [nM],koff (CD3ε (SPR analyte) [12]) [s⁻¹],kon (CD3ε (SPR analyte) [12]) [M⁻¹ s⁻¹],EC50 (read off the curve) [13] [µg/mL],EC50 (read off the curve) [14] [µg/mL],other results
"BG87P-21 (antibody, V domains shown) VH: QVQLVQSGAEVKKPGASVKVSCKASGYSFTDYHINWVRQAPGQRLEWMGWIYPGSGYTKYNEKFKGRVTITRDTSASTAYMELSSLRSEDTAVYYCARSGIYHYVSSYYFDHWGKGTTVTVSS VL: DIQMTQSPSTLSASVGDRVTITCKASQDVGTAVAWYQQKPGKAPKLLIYWASTRHTGVPSRFSGSGSGTEFTLTISSLQPDDFATYYCQQYSSYTFGGGTKVEIK",0.91,0.66,0.8,8.9,binds,,,,,,,,,,,EC50 (human claudin 6 (CLDN6) [5]): 3.07 nM; Emax ratio to BG87P (human claudin 6 (CLDN6) [5]): 0.78 ratio; Top MFI Mean (human claudin 6 (CLDN6) [5]): 149000 MFI; EC50 (human claudin 6 (CLDN6) [6]): 2.8 nM and 2.62 nM; Emax ratio to BG87P (human claudin 6 (CLDN6) [6]): 0.61 ratio; EC50 (read off the curve) (cyno CLDN6 [7]): ~9 nM; EC50 (read off the curve) (human claudin 6 (CLDN6) [8]): ~10 nM
"BG87P-31 (antibody, V domains shown, Solubility engineering variant of BG87P-21) VH: QVQLQQSGAETKKPGASVKVSCKASGYSFTDYHINWVRQASGQRLEWMGYIYPGSGHTKKNEKFKGRVTITRDTSASTAYMELSSLRSEDTAVYYCARSGIYHYVSSYYFDHWGKGTTVTVSS VL: DIQMTQSPSTLSASVGDRVTITCKASQDAGSAVAWYQQKPGKAPKLLIKWASTRHTGVPSRFSGSGSGTEFTLTISSLQPDDFATYYCQQYSSYTFGGGTKVEIK",1.6,0.76,,,,,,,,,,,,,,
"BG87P-33 (antibody, V domains shown, Framework-swapped variant; also called BG87-33) VH: EVQLQESGGGLVQPGGSLRLSCAASGYSFTDYHINWVRQAPGKGLEWVSYIYPGSGHTKYNEKFKGRFTISRDTSKNTAYLQMNSLRAEDTAVYYCARSGIYHYVSSYYFDHWGQGTLVTVSS VL: DIQMTQSPSTLSASVGDRVTITCKASQDAGSAVAWYQQKPGKAPKLLIYWASTRHTGVPSRFSGSGSGTEFTLTISSLQPDDFATYYCQQYSSYTFGGGTKVEIK",2.45,0.91,0.75,25.8,binds,,,,,,,,,,,
"chimeric sp34 (ch-sp34) (antibody, V domains shown) VH: EVQLVESGGGLVQPKGSLKLSCAASGFTFNTYAMNWVRQAPGKGLEWVARIRSKYNNYATYYADSVKDRFTISRDDSQSILYLQMNNLKTEDTAMYYCVRHGNFGNSYVSWFAYWGQGTLVTVSS VL: QAVVTQESALTTSPGETVTLTCRSSTGAVTTSNYANWVQEKPDHLFTGLIGGTNKRAPGVPARFSGSLIGDKAALTITGAQTEDEAIYFCALWYSNLWVFGGGTKLTVL",,,,,,1.9,2.49,2.3,0.000496,216000,2.3,0.000496,216000,~0.3,~0.4,
"humanized sp34 BG53P (antibody, V domains shown, also called hu-sp34) VH: EVQLVESGGGLVQPGGSLRLSCAASGFTFNTYAMNWVRQAPGKGLEWVARIRSKYNNYATYYADSVKDRFTISRDDAKSSLYLQMNSLRAEDTAMYYCVRHGNFGNSYVSWFAYWGQGTLVTVSS VL: QAVVTQSPATLSVSPGERATLSCRSSTGAVTTSNYANWVQEKPGQLFTGLIGGTNKRAPGIPARFSGSLSGDEATLTISSLQSEDFAIYFCALWYSNLWVFGGGTKVEIK",,,,,,1.8,1.72,2.65,0.000525,198000,4.58,0.000484,106000,~0.3,~0.3,
"humanized sp34 BG56P (antibody, V domains shown) VH: EVQLVESGGGLVQPGGSLRLSCAASGFTFNTYAMNWVRQAPGKGLEWVARIRSKYNNYATYYADSVKDRFTISRDDAKNSLYLQMNSLRAEDTAVYYCVRHGNFGNSYVSWFAYWGQGTLVTVSS VL: EIVLTQSPATLSVSPGERATLSCRSSTGAVTTSNYANWVQQKPGQAPRGLIGGTNKRAPGIPARFSGSLSGDEATLTISSLQSEDFAVYYCALWYSNLWVFGGGTKVEIK",,,,,,4.69,4.69,,,,7.06,0.000325,46000,~0.7,~0.7,Kd (CD3ε (SPR analyte) [15]): 7.06 nM; koff (CD3ε (SPR analyte) [15]): 0.000325 s⁻¹; kon (CD3ε (SPR analyte) [15]): 46000 M⁻¹ s⁻¹
